Consider 84 variants from the RNAGym collection of RNA variant scans (doi:10.1093/molbev/msab373).

Sequences and labels used below:
B1: Azoarcus group I ribozyme (parent)
chain: GUGCCUUGCGCCGGGAAACCACGCAAGGGAUGGUGUCAAAUUCGGCGAAACCUAAGCGCCCGCCCGGGCGUAUGGCAACGCCGAGCCAAGCUUCGGCGCCUGCGCCGAUGAAGGUGUAGAGACUAGACGGCACCCACCUAAGGCAAACGCUAUGGUGAAGGCAUAGUCCAGGGAGUGGCGAAAGUCACACAAACCGG

In this data set the parent is B1. As to the kind of experiment: reverse-splicing fitness (ratio to wild type); higher = more active; in vitro selection; Mg2+ level not given. Put shortly:
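An in vitro group I ribozyme library with randomized positions was T7-transcribed and gel-purified. In triplicate, 10 pmol RNA in EPPS pH 7.5 was reacted with 50 pmoles of a 30-nt RNA substrate for 1 h at 37 °C across several added MgCl2 levels (1–48 mM), then stopped with EDTA. Products were reverse transcribed from a substrate-complementary primer, PCR-amplified and sequenced (HiSeq 4000). Fitness is a variant's read proportion after selection over that before, normalised to wild type.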
Regarding C82G A120U C150U, the reverse-splicing fitness worked out at 0.1. Regarding C82G A120U A145G C169U U176C, the reverse-splicing fitness came to 0.00453.

In the case of C82G A120U A145G C169U U176A, the reverse-splicing fitness came to 0.00419. As for C82G A120U A145G C169U U176G, the reverse-splicing fitness was found to be 0.00154. The value for C82G A145G C150G C169A was 0.00944. The value for C82G A145G C150G C169U was 0.011; that for C82G A145G C150G C169G was 0.00848. Regarding C82G A145C C150A C169G, the reverse-splicing fitness is 0.00807. For the variant C82G A145C C150A C169A, the reverse-splicing fitness stood at 0.00782. With C82G A145C C150A C169U, the reverse-splicing fitness is 0.00875. The value for C82G A120U C150A C169U U176A was 0.00396. With C82G A120U C150A C169U U176C the figure was 0.00296; with C82G A120U C150A C169U U176G, 0.00185; with C82G A120U A145U C150U C169A, 0.00259. With C82G A120U A145U C150U C169G the figure was 0.00513; with C82G A120U A145U C150U C169U, 0.00488; with C82G A120U A145U C150G C169U U176G, 0.00234. Turning to C82G A120U A145U C150G C169U U176C, the reverse-splicing fitness amounted to 0.00223.

For C82G A120U A145U C150G C169U U176A, the reverse-splicing fitness is 0.003. As for C82G A145C C150U U176A, the reverse-splicing fitness stood at 0.0881.

For the variant C82G A145C C150U U176G, the reverse-splicing fitness stood at 0.0373. With C82G A145C C150U U176C the figure was 0.0809; with C82G A145C C150G U176G, 0.0106; with C82G A145C C150G U176A, 0.0337.

For C82G A145C C150G U176C, the reverse-splicing fitness was 0.0389. With C82G A145C C169G U176C the figure was 0.011; with C82G A145C C169G U176G, 0.0041. With C82G A145C C169G U176A, the reverse-splicing fitness is 0.0202. Regarding C82G A145G C150G U176G, the reverse-splicing fitness was found to be 0.0127. The value for C82G A145G C150G U176C was 0.0452. With C82G A145G C150G U176A the figure was 0.0343.

Consider C82G A145G C169G, for which the reverse-splicing fitness is 0.0112.

Consider C82G A145G C169U, for which the reverse-splicing fitness worked out at 0.0164. C82G A145G C169A: the reverse-splicing fitness came out at 0.00951. With C82G A145C C150G C169G the figure was 0.00714; with C82G A145C C150G C169A, 0.00875; with C82G A145C C150G C169U, 0.01. As for C82G A145U C150U, the reverse-splicing fitness worked out at 0.321. With C82G A145U C150G the figure was 0.0473; with C82G A145U C150A, 0.0405; with C82G A145G C150A C169G, 0.00861. For the variant C82G A145G C150A C169U, the reverse-splicing fitness was determined as 0.0106. The value for C82G A145G C150A C169A was 0.0117; that for C82G A120U C169U was 0.00719; that for C82G A120U C169A was 0.00257.

On to C82G A120U C169G, for which the reverse-splicing fitness worked out at 0.00666.

As for C82G A120U C150U C169A U176A, the reverse-splicing fitness is 0.00417. With C82G A120U C150U C169A U176G the figure was 0.00166. The value for C82G A120U C150U C169A U176C was 0.00267; that for C82G A120U A145G C150U C169U U176A was 0.00444; that for C82G A120U A145G C150U C169U U176C was 0.00469. Take C82G A120U A145G C150U C169U U176G: the reverse-splicing fitness worked out at 0.00216. With C82G A120U C150G C169U U176C the figure was 0.00347; with C82G A120U C150G C169U U176A, 0.00369; with C82G A120U C150G C169U U176G, 0.0022. For the variant C82G A120U A145U C150U C169A U176G, the reverse-splicing fitness is 0.00157.

Turning to C82G A120U A145U C150U C169A U176A, the reverse-splicing fitness came out at 0.00183.

Take C82G A120U A145U C150U C169A U176C: the reverse-splicing fitness worked out at 0.00197. The value for C82G A120U C150G C169G U176A was 0.00454; that for C82G A120U C150G C169G U176G was 0.00218. With C82G A120U C150G C169G U176C the figure was 0.00277; with C82G A120U C150A C169A U176A, 0.00432.

For C82G A120U C150A C169A U176C, the reverse-splicing fitness came to 0.0035. As for C82G A120U C150A C169A U176G, the reverse-splicing fitness amounted to 0.00205. As for C82G A145U C150U U176G, the reverse-splicing fitness was determined as 0.0935. C82G A145U C150U U176C: the reverse-splicing fitness stood at 0.234.

In the case of C82G A145U C150U U176A, the reverse-splicing fitness was determined as 0.236. Regarding C82G A145G C150A U176A, the reverse-splicing fitness is 0.0509. With C82G A145G C150A U176C the figure was 0.0688.

With C82G A145G C150A U176G, the reverse-splicing fitness was 0.0244. The value for C82G A145U C150G U176A was 0.0361; that for C82G A145U C150G U176G was 0.0103; that for C82G A145U C150G U176C was 0.0376. C82G A145C C150A U176A: the reverse-splicing fitness was 0.0237.

For C82G A145C C150A U176G, the reverse-splicing fitness is 0.0117.

As for C82G A145C C150A U176C, the reverse-splicing fitness amounted to 0.0216. For the variant C82G A145C C150U C169A U176A, the reverse-splicing fitness stood at 0.0111. For the variant C82G A145C C150U C169A U176C, the reverse-splicing fitness came out at 0.00579. With C82G A145C C150U C169A U176G the figure was 0.00476; with C82G A120U A145U U176G, 0.02; with C82G A120U A145U U176A, 0.0782. The value for C82G A120U A145U U176C was 0.116. C82G A145C C169A: the reverse-splicing fitness was found to be 0.00859. The value for C82G A145C C169U was 0.016.
